Laboratory results published in patent publication US20220395553A1 (COHBAR, published 2022).
Square brackets hold non-standard residues; d marks the D form. Ends that are not written are not given here.

B1: SEQ ID NO: 57 (peptide)
peptide: LERYHHS[dA]RSSLRPYTK-NH2
modifications: N-terminus assumed
SMILES: CC(C)C[C@H](NC(=O)[C@H](CO)NC(=O)[C@H](CO)NC(=O)[C@H](CCCNC(=N)N)NC(=O)[C@@H](C)NC(=O)[C@H](CO)NC(=O)[C@H](Cc1c[nH]cn1)NC(=O)[C@H](Cc1c[nH]cn1)NC(=O)[C@H](Cc1ccc(O)cc1)NC(=O)[C@H](CCCNC(=N)N)NC(=O)[C@H](CCC(=O)O)NC(=O)[C@@H](N)CC(C)C)C(=O)N[C@@H](CCCNC(=N)N)C(=O)N1CCC[C@H]1C(=O)N[C@@H](Cc1ccc(O)cc1)C(=O)N[C@H](C(=O)N[C@@H](CCCCN)C(N)=O)[C@@H](C)O

Columns and labels:
[1] = biological target: ProLink tagged human CXCR4 (C2C12 CXCR4 β-Arrestin cell line) (human, UniProt P61073 1-352); experiment: cell-based or functional assay
Chain of ProLink tagged human CXCR4 (C2C12 CXCR4 β-Arrestin cell line) (P61073 whole entry): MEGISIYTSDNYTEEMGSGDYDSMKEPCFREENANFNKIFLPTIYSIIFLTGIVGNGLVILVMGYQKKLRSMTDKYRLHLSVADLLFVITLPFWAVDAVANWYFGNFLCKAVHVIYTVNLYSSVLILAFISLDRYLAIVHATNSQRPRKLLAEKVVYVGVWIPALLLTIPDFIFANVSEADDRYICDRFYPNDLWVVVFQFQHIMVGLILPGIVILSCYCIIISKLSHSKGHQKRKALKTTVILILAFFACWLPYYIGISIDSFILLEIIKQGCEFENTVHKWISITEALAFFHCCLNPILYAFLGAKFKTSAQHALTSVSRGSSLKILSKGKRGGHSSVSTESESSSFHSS

[2] = biological target: T1, CXCR4 on cultured U937 and Jurkat cells (human, UniProt P61073 1-352); experiment: cell-based or functional assay
T1 sequence (P61073 whole entry): as above

[3] = biological target: T2, SNAP tagged-CXC4 receptor labeled with terbium (Tag-lite CXCR4 cells, HEK293) (UniProt P61073 1-352, SNAP tag labeled with terbium fluorescent dye); experiment: HTRF competition on Tag-lite CXCR4 HEK293 cells; competitor labelled CXCL12
T2 construct: whole, on cells; Bought frozen cells (PerkinElmer-CisBio), HEK293 transiently expressing the receptor; also called terbium labeled CXCR receptor
T2 sequence (P61073 whole entry): as above
Method: (§1) Peptides were initially prepared as 1 mM stock in H₂O and tested at a final concentration of 400 nM. Following the manufacture's protocol, a frozen aliquot of Tag-lite CXCR4 cells was thawed and immediately seeded onto 384-well plates in TLB. Immediately following the addition of cells, 400 nM peptide (final concentration) in TLB was added to the appropriate well. […] The plates were covered in aluminum foil and left at room temperature for 3 hours. Following the 3 hour incubation period, the plates were removed from the incubator and fluorescence measured using a Cytation 1 plate reader using a HTRF filter cube ([…]; BioTek; Winooski, Vt.).

[4] = biological target: T2, SNAP tagged-CXC4 receptor labeled with …; experiment: as above; remark: listed apart in the source
Method: as §1, with “H₂O. […]” for “H₂O and tested at a final concentration of 400 nM.”, “TLB.” for “TLB. Immediately following the addition of cells, 400 nM peptide (final concentration) in TLB was added to the appropriate well.”

[5] = biological target: T1, CXCR4 on cultured U937 and Jurkat cells; experiment: cell-based or functional assay; remark: listed apart in the source

| Binder | IC50 for Inhibition of CXCR4 Activation (β-Arrestin recruitment) [1] | Percent Inhibition of CXCR4/CXCL12 Induced p-MEK (100 nM Test Article) [2] | Percent Inhibition of CXCR4/CXCL12 Induced p-MEK (1 µM Test Article) [2] | Percent Inhibition of CXCR4/CXCL12 Binding (400 nM peptide) [3] | IC50 [4] | Percent Inhibition of CXCL12 Mediated Migration (1.1 µM Test Article; Jurkat cells) [5] |
| --- | --- | --- | --- | --- | --- | --- |
| LRDYHHSVRSSLRPYTK [SEQ ID NO: 36] | > 1000 nM | 22% | -5% | -11% | 5990 nM | – |
| LERYHHSVRSSLRP [SEQ ID NO: 20] | 37 nM | – | – | 37% | – | – |
| [dA]ERYHHS[dA]RSSLRPYTK [SEQ ID NO: 35] | 291 nM | -7% | -6% | -13% | 6310 nM | – |
| LRRYHHTVRSSLRPYTK [SEQ ID NO: 38] | 3 nM | 51% | 96% | 12% | 175 nM | – |
| LRRYHHSVRSSLDPYTK [SEQ ID NO: 67] | 14 nM | -8% | 42% | 3% | 380 nM | – |
| LERYHHS[dA]RSSLRPYSK [SEQ ID NO: 78] | 12 nM | 29% | 46% | 72% | – | – |
| LERYNHS[dA]RSSLRPYTK [SEQ ID NO: 43] | 14 nM | 5% | 40% | 53% | – | – |
| LRRYHHSVRSTLRPYTK [SEQ ID NO: 71] | 3 nM | 56% | 94% | 29% | 133 nM | – |
| LRRFHHSVRSSLRPYTK [SEQ ID NO: 53] | 3 nM | 62% | 98% | 5% | 108 nM | 59% |
| LERYHHSVRSSLRGYTK [SEQ ID NO: 80] | 4 nM | 52% | 96% | 88% | 6 nM | 71% |
| [dA]ERYHHSVRSSLRPYTK [SEQ ID NO: 34] | > 1000 nM | -1% | 2% | -17% | 4540 nM | – |
| LRRYHHSVDSSLRPYTK [SEQ ID NO: 66] | 27 nM | -7% | 13% | -5% | 563 nM | – |
| LRRYHHSVRSSLRPYSK [SEQ ID NO: 72] | 5 nM | 8% | 86% | 6% | 589 nM | – |
| LERYHHS[dA]RTSLRPYTK [SEQ ID NO: 76] | 6 nM | 5% | 44% | 75% | – | – |
| LERYHHSVRSSL [SEQ ID NO: 22] | 17 nM | – | – | 14% | – | – |
| [dA]RRYHHSVRSSLRPYTK [SEQ ID NO: 33] | 7 nM | 7% | 42% | 77% | 42 nM | – |
| LERYHHS[dA]RSSLRPFTK [SEQ ID NO: 61] | 8 nM | 15% | 46% | 54% | – | – |
| B1 | 33 nM | 10% | 72% | – | – | 30% |
| LERFHHS[dA]RSSLRPYTK [SEQ ID NO: 55] | 4 nM | 16% | 72% | 56% | 31 nM | – |
| LERYHHSVRSSLR [SEQ ID NO: 21] | 16 nM | – | – | 20% | – | – |
| LERYHHS[dA]RSTLRPYTK [SEQ ID NO: 77] | 4 nM | 7% | 68% | 77% | – | – |
| LERYHHSVRSSLRPY [SEQ ID NO: 19] | 19 nM | – | – | 44% | – | – |
| LERYHHS[dA]RSSLRGYTK [SEQ ID NO: 81] | 3 nM | -16% | 20% | 81% | 23 nM | – |
| LRRYHHSVRSSLRPFTK [SEQ ID NO: 59] | 3 nM | 43% | 93% | -3% | 382 nM | – |
| LERYHHSVRSS [SEQ ID NO: 23] | 28 nM | – | – | 23% | – | – |
